The values that follow come from publication PMC4041364.

In one series the target is HuR (human antigen R) (UniProt Q15717 1-326). Put plainly: fluorescence polarization. (In general: In fluorescence polarisation assays a small probe gives low polarisation when free and higher when bound to something large.)
In series [1] the target is T1, Granzyme A (GzmA) (human, UniProt P12544 29-262).
T1 sequence: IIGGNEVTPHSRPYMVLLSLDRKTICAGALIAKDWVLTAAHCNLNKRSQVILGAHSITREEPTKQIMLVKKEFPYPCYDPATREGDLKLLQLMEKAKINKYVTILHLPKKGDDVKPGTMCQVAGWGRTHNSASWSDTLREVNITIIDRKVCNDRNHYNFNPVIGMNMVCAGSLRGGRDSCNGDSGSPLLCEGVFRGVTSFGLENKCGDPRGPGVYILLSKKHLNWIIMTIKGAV
As to the kind of experiment: fluorescence polarization.

The target of series [2] is T2, Granzyme B (GzmB) (human, UniProt P10144 21-247). As to the kind of experiment: fluorescence polarization.
T2 sequence (P10144 21-247): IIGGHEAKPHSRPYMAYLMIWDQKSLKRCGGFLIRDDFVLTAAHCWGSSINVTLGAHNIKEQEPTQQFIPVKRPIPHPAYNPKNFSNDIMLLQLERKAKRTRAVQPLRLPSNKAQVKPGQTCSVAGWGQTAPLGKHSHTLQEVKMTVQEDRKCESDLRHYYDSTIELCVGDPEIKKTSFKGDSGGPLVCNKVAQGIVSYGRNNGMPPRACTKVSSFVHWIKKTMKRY
Series [3] has as its target T3, Neutrophil elastase (NE) (human, UniProt P08246 30-267). Put plainly: fluorescence polarization.
In series [4] the target is T4, Cathepsin G (CATG) (human, UniProt P08311 21-244).
T4 sequence: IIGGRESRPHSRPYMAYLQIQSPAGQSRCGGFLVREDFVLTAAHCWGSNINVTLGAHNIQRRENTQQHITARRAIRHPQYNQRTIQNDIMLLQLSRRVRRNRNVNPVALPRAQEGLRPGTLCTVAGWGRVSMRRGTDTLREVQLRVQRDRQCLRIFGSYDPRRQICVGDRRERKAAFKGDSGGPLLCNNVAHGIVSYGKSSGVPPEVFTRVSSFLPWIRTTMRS
Put plainly: fluorescence polarization.

The next series concerns the target Histone H1 (UniProt P07305 1-194). As to the kind of experiment: fluorescence polarization.
Series [5] deals with T3, Neutrophil elastase (NE). As to the kind of experiment: pull-down.
In series [6] the target is T4, Cathepsin G (CATG). Put plainly: pull-down.
For a further series, the target named is Pancreatic elastase (PE) (porcine, UniProt P00772 27-266). As to the kind of experiment: pull-down.
Sequence of Pancreatic elastase (PE) (P00772 27-266): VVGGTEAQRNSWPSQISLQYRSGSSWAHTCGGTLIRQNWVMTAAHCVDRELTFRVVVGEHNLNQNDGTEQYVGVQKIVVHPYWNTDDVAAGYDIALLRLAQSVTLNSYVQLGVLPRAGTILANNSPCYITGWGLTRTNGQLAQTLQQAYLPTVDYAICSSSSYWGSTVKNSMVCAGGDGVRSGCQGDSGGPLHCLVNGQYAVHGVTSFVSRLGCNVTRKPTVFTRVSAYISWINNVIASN
For series [7], the target named is T1, Granzyme A (GzmA). Put plainly: pull-down.
Series [8] addresses T2, Granzyme B (GzmB). Put plainly: pull-down.

T3 sequence (P08246 30-267): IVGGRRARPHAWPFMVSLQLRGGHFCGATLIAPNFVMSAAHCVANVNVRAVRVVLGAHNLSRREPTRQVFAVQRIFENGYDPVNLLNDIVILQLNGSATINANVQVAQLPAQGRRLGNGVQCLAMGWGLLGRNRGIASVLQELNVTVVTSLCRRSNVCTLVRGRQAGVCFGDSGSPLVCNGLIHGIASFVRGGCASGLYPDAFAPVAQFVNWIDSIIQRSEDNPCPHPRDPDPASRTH
Sequence of HuR (human antigen R) (Q15717 whole entry): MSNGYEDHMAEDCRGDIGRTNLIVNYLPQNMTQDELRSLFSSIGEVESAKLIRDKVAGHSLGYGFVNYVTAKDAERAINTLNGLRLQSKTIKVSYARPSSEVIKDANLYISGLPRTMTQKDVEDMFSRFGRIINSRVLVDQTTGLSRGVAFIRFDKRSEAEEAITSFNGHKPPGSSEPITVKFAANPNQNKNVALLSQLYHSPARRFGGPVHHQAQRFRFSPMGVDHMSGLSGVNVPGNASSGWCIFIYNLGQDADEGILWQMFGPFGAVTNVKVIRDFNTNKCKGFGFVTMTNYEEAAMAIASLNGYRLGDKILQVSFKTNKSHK
Sequence of Histone H1 (P07305 whole entry): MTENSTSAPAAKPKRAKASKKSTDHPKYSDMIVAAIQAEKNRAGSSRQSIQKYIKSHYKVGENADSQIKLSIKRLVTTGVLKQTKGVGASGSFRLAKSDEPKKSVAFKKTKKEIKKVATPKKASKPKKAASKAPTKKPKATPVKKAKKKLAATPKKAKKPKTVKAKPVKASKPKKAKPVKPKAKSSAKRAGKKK

B1: BB94 RNA (ssRNA)
RNA: UCUGUGAGUUGAACGCACACAUCACAAAGGA
B1: the results for the Kd with HuR (human antigen R), with Granzyme A (GzmA) [1] and with Granzyme B (GzmB) [2] were 4800 nM, 1600 nM and 480 nM, respectively.

B2: rU(30) (ssRNA)
RNA: UUUUUUUUUUUUUUUUUUUUUUUUUUUUUU
Consider B2, for which the Kd amounted to 121 nM in the series with HuR (human antigen R), 232 nM in the series with Granzyme A (GzmA) [1] and 159 nM in the series with Granzyme B (GzmB) [2].

B3: dT(30) (ssDNA)
DNA: TTTTTTTTTTTTTTTTTTTTTTTTTTTTTT
For the molecule B3, the Kd with Granzyme A (GzmA) [1] was 48 nM; with Granzyme B (GzmB) [2], 45 nM.

B4: BB94 ssDNA (ssDNA)
DNA: TCTGTGAGTTGAACGCACACATCACAAAGGAG
B4: the Kd in the series with Neutrophil elastase (NE) [3] turned out to be 272 nM; with Cathepsin G (CATG) [4], 22 nM; with Granzyme A (GzmA) [1], 122 nM; in the series with Histone H1, 10 nM; in the series with Granzyme B (GzmB) [2] it was 35 nM.

B5: BB94 dsDNA (dsDNA)
DNA 1: TCTGTGAGTTGAACGCACACATCACAAAGGAG
DNA 2: CTCCTTTGTGATGTGTGCGTTCAACTCACAGA
Regarding B5, the Kd in the series with Neutrophil elastase (NE) [3] came to 607 nM; in the series with Cathepsin G (CATG) [4], 35 nM; with Granzyme A (GzmA) [1], 120 nM; in the series with Histone H1, 9 nM; with Granzyme B (GzmB) [2], 161 nM.

B6: Oligo(dT)25 beads (ssDNA)
DNA: TTTTTTTTTTTTTTTTTTTTTTTTT
B6: the binding result is “binds” in the series with Neutrophil elastase (NE) [5]; “binds” with Cathepsin G (CATG) [6]; “no binding” with Pancreatic elastase (PE); “binds” with Granzyme A (GzmA) [7]; “binds” with Granzyme B (GzmB) [8].

B7: AU RNA (ssRNA)
RNA: CCCAAGCUUAUUUAUUUAUUUAUUGCAGGUC
For the molecule B7, the dissociation constant Kd stood at 602 nM in the series with Neutrophil elastase (NE) [3]; 165 nM in the series with Cathepsin G (CATG) [4]; 492 nM with HuR (human antigen R); 401 nM in the series with Granzyme A (GzmA) [1]; 651 nM with Granzyme B (GzmB) [2].

The Kd is the constant that tells how readily two partners part at equilibrium. Read a low Kd as higher affinity.
